Where two headings read alike, the source gives them in different places. Ends that are not written are not given here.
Key:
[1] = molecular target: T1, human μ receptor (adenylyl cyclase) (Homo sapiens, UniProt P35372); format: cell-based
T1 construct: the cDNA containing the open reading frame of the receptor was cloned downstream of the human cytomegalovirus promoter in the mammalian expression vector pcDNA3; expressed in transfected cells; host or cells: COS-7 (transient)

[2] = molecular target: T2, rat μ-opioid receptor MOR-1 (Rattus norvegicus, UniProt P33535, V245I); experiment: biochemical; format: binding
T2 construct: A 1.4-kilobase HindIII fragment encompassing the open reading frame from the cDNA encoding MOR-1 was cloned; expressed in transfected cells; host or cells: COS-7

[3] = molecular target: T3, rat μ opioid receptor coupled to G protein-activated K+ channel (Rattus norvegicus, UniProt P33535, V245I); format: cell-based
T3 construct: A cDNA clone, MOR-1, containing the protein coding region of a rat μ opioid receptor has been described; expressed in transfected cells; host or cells: Xenopus oocytes (mRNA injection)

[4] = molecular target: T4, human μ opioid receptor coupled to G protein-activated K+ channel (Homo sapiens, UniProt P35372); format: cell-based
T4 construct: Messenger RNAs encoding both proteins (Chen and Yu, 1994) were generated by in vitro transcription and injected into Xenopus oocytes; expressed in transfected cells; host or cells: Xenopus laevis oocytes (mRNA injection)

[5] = molecular target: T5, cloned human mu opioid receptor (human, UniProt P35372 1-400); experiment: displacement of […] [3H]DAMGO; membranes of COS-7 cells expressing the human µ receptor
T5 construct: Full-length receptor expressed from pcDNA3 in COS-7 cells (membranes) or from mRNA in Xenopus oocytes; also called human µ opioid receptor; human µ receptor

[6] = molecular target: T5, cloned human mu opioid receptor; experiment: inhibition of 2 nM [3H]DAMGO binding; membranes of COS-7 cells expressing the human µ receptor
[7] = molecular target: T6, rat mu opioid receptor MOR-1 (rat, UniProt P33535 1-398); experiment: displacement of 0.25 nM [3H]diprenorphine; membranes of COS-7 cells expressing MOR-1
T6 construct: Full-length receptor expressed from the cDNA in COS-7 cells (membranes), stably in CHO cells (membranes, whole cells) or in Xenopus oocytes; also called rat µ-opioid receptor; cloned rat µ receptor

[8] = molecular target: human μ opioid receptor hμOR1 (Homo sapiens, UniProt P35372, D51N)
[9] = molecular target: mu opioid receptor (DAMGO sites); conditions: read-out: affinity (displacement of radiolabeled DAMGO); Vaughn and Taylor, 1989; cited from earlier work
[10] = molecular target: Mu2 site; conditions: Clark et al., 1988; cited from earlier work
[11] = molecular target: Mu1 site; conditions: Clark et al., 1988; cited from earlier work
[12] = molecular target: μ opioid receptor (PL-17 sites), guinea pig brain membranes; conditions: read-out: affinity (displacement of radiolabeled PL-17); Kawasaki et al., 1990; cited from earlier work
[13] = molecular target: T7, rat μ opioid receptor (Rattus norvegicus, UniProt P33535, V245I); format: binding
T7 construct: A plasmid containing a 1.4 kb cDNA for the rat μ opioid receptor in a mammalian expression vector pRc/CMV has been described; expressed in transfected cells

[14] = molecular target: T8, cloned human μ opioid receptor (Homo sapiens, UniProt P35372); conditions: read-out: Binding potencies (Ki-nM), human μ receptor, [3H]DAMGO
T8 construct: the cDNA containing the open reading frame of the receptor was cloned downstream of the human cytomegalovirus promoter in the mammalian expression vector pcDNA3; expressed in transfected cells; host or cells: COS-7 (transient)

[15] = molecular target: T6, rat mu opioid receptor MOR-1; experiment: saturation binding; membranes of stably transfected CHO cells
[16] = molecular target: T5, cloned human mu opioid receptor; experiment: [3H]DAMGO binding to COS-7 membranes with 100 mM GTPgS in the assay
[17] = molecular target: T6, rat mu opioid receptor MOR-1; experiment: as above
[18] = molecular target: T5, cloned human mu opioid receptor; experiment: saturation binding; membranes of COS-7 cells expressing the human µ receptor
[19] = molecular target: T6, rat mu opioid receptor MOR-1; experiment: whole-oocyte binding of 1 nM ^3H-DAMGO; oocytes injected with mRNAs for the µ receptor and the K^+ channel
[20] = molecular target: T5, cloned human mu opioid receptor; experiment: saturation binding, Scatchard analysis; membranes of COS-7 cells expressing the human µ receptor
[21] = molecular target: T6, rat mu opioid receptor MOR-1; experiment: saturation binding of [3H]DAMGO; membranes of stably transfected CHO cells
[22] = molecular target: T6, rat mu opioid receptor MOR-1; experiment: cell-based or functional assay
[23] = molecular target: T5, cloned human mu opioid receptor; experiment: [3H]DAMGO binding to membranes of COS-7 cells pretreated with pertussis toxin
[24] = molecular target: T6, rat mu opioid receptor MOR-1; experiment: as above
[25] = molecular target: T9, novel member of the opioid receptor gene family (SEQ ID NO: 17) (Rattus norvegicus, UniProt P35370); format: cell-based
T9 construct: mRNA of this clone was synthesized by in vitro transcription and coinjected into Xenopus oocytes; expressed in transfected cells; host or cells: Xenopus oocytes (mRNA injection)
T9 sequence (P35370 whole entry): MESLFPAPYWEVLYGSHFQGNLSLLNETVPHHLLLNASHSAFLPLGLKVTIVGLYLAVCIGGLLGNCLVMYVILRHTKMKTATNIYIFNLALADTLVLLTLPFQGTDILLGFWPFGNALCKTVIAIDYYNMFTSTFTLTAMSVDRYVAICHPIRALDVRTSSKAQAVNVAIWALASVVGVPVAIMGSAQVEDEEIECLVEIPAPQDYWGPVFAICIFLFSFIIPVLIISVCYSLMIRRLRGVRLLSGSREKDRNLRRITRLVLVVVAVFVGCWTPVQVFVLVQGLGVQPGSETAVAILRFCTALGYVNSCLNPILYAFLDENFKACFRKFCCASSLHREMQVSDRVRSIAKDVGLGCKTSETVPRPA

[26] = molecular target: T6, rat mu opioid receptor MOR-1; experiment: inhibition of [3H]DAMGO binding; membranes of COS-7 cells expressing the rat µ receptor

Question: For `CN1CC[C@]23CCCC[C@H]2[C@H]1Cc1ccc(O)cc13` [levorphanol], which “effect on forskolin-stimulated cAMP accumulation (in words)” value [1] is on record?
Answer: decreased cAMP accumulation

Question: For `CC(C)C[C@H](NC(=O)[C@H](Cc1ccccc1)NC(=O)CNC(=O)[C@@H](CO)NC(=O)[C@@H](N)Cc1ccc(O)cc1)C(=O)N[C@H](C(=O)O)[C@@H](C)O` [DSLET, [D-Ser, Leu^5, Thr^6]-enkephalin], which Ki [2] is on record?
Answer: 314 nM

Question: Which results are given for `CCCCCCCCCCCCCC(=O)O[C@@H]1[C@@H](C)[C@@]2(O)[C@@H](C=C(CO)C[C@]3(O)C(=O)C(C)=C[C@@H]23)[C@@H]2C(C)(C)[C@]12OC(C)=O` [PMA, phorbol 12-myristate 13-acetate]?
Answer: effect of kinase modulators on desensitization (in words) [3]: further reduced the second response; second DAMGO response relative to the first (peak current) [4]: 29%+7%

Question: For [D-Pen^2,5]-enkephalin (peptide), which IC50 [5] is on record?
Answer: > 1000 nM

Question: With Leu-enkephalin as the molecule, how does the “effect on forskolin-stimulated cAMP accumulation (in words)” value [1] read?
Answer: significantly reduced

Question: Which Ki [6] does the source give for “CTOP, D-Phe-Cys-Tyr-D-Trp-Orn-Thr-Pen-Thr-NH2 (peptide)” here?
Answer: 3.9 nM

Question: With cyclic somatostatin (peptide) as the molecule, how does the IC50 [7] read?
Answer: 11000 nM

Question: Which “difference in Ki between the inventor's clone and the clone of Wang et al.” value [8] does the source give for Dynorphin A here?
Answer: over 100 fold

Question: What about the Ki [9] of the same molecule?
Answer: 3 nM

Question: What about the Ki [10] of the same molecule?
Answer: 2.2 nM

Question: And the Ki [11]?
Answer: 0.7 nM

Question: What about the Ki [12] of the same molecule?
Answer: 5 nM

Question: For `Nc1nc2c(ncn2[C@@H]2O[C@H](COP(=O)(O)OP(=O)(O)OP(=O)(O)O)[C@@H](O)[C@H]2O)c(=O)[nH]1` [GTP], which “effect on specific [3H]DAMGO binding (in words)” value [13] is on record?
Answer: decrease the specific binding

Question: For `COc1cccc2c1[C@]13CCN(CC4CC4)[C@H](C2)[C@]1(OC)CCC(=O)C3` [Cyprodime], which Ki [2] is on record?
Answer: 9.1 ± 2.8 nM

Question: What about the “Ki values (in words)” value [2] of the same molecule?
Answer: nanomolar range

Question: Which Ki [14] does the source give for “GGFMTSEKSQTPLVTLFKNAIIKNAYKKGE [des-Tyr^1-β-endorphin]” here?
Answer: > 1000 nM

Question: For `Nc1ncnc2c1nc(Sc1ccc(Cl)cc1)n2[C@@H]1O[C@@H]2COP(=O)(O)O[C@H]2[C@H]1O` [8-CPT-cAMP, 8-chlorophenylthio-cAMP], which “effect of kinase modulators on desensitization (in words)” value [3] is on record?
Answer: completely abolished the desensitization

Question: With `CC1=C[C@H]2[C@@]3(O)[C@H](C)[C@@H](O)[C@]4(O)[C@H]([C@@H]3C=C(CO)C[C@@]2(O)C1=O)C4(C)C` [4α-phorbol] as the molecule, how does the “second DAMGO response relative to the first (peak current)” value [4] read?
Answer: 87%+2%

Question: Which Ki [14] does the source give for `COC(=O)/C=C/C(=O)N[C@@H]1CC[C@@]2(O)[C@H]3Cc4ccc(O)c5c4[C@@]2(CCN3CC2CC2)[C@H]1O5` [β-funaltrexamine] here?
Answer: 0.29 nM

Question: What about the “Ki values (in words)” value [2] of the same molecule?
Answer: nanomolar range

Question: What about the Ki ([2]; read-out: Ki values) of the same molecule?
Answer: 1.3 ± 0.1 nM

Question: With “[D-Ala^2, N-Me-Phe^4, Gly-ol^5]-enkephalin (peptide)” as the molecule, how does the Kd [15] read?
Answer: 1 nM

Question: And the decrease of specific labelling by GTPgS [16]?
Answer: 65%

Question: What about the decrease of specific labelling by GTPgS [17] of the same molecule?
Answer: 55%

Question: And the Bmax (fmol/mg membrane protein) [18]?
Answer: 381

Question: And the specific binding [19]?
Answer: 1 fmol/oocyte

Question: And the Bmax [20]?
Answer: 232 fmol/mg

Question: What about the Kd [20] of the same molecule?
Answer: 1 nM

Question: And the Bmax (fmol/mg membrane protein) [21]?
Answer: 630

Question: What about the Kd [21] of the same molecule?
Answer: 0.47 nM

Question: What about the DAMGO/control (cAMP with forskolin plus DAMGO over forskolin only), morphine-treated cells [22] of the same molecule?
Answer: 42.4%

Question: What about the DAMGO/control (cAMP with forskolin plus DAMGO over forskolin only), naive cells [22] of the same molecule?
Answer: 71.9%

Question: What about the EC50 of inhibition of forskolin-stimulated intracellular cAMP, naive transfected CHO cells [22] of the same molecule?
Answer: 30 nM

Question: And the GTPase activity of G proteins, stably transfected CHO cells, 10 µM DAMGO [22]?
Answer: 30%

Question: And the barium current through a voltage-activated calcium channel, Xenopus oocytes with the channel and the mu opioid receptor, 1 µM DAMGO [22]?
Answer: > 80 % reduction

Question: What about the intracellular cAMP level after forskolin, COS-7 cells expressing MOR-1, 100 nM DAGO [22] of the same molecule?
Answer: 18.1 % reduction

Question: What about the intracellular cAMP level, Forskolin + DAMGO (1 µM), morphine-treated cells (fmol/1 × 10^3 cells) [22] of the same molecule?
Answer: 38.9

Question: And the intracellular cAMP level, Forskolin + DAMGO (1 µM), naive cells (fmol/1 × 10^3 cells) [22]?
Answer: 25.6

Question: What about the low Km GTPase activity, membranes of stably transfected CHO cells, 1 µM DAMGO [22] of the same molecule?
Answer: 33%

Question: What about the maximal inhibition of intracellular cAMP, naive transfected CHO cells [22] of the same molecule?
Answer: 25%

Question: What about the maximal inhibition of intracellular cAMP, transfected CHO cells treated with morphine for 24 hr [22] of the same molecule?
Answer: 60%

Question: And the Ki [7]?
Answer: 2.8 nM

Question: What about the decrease of labelling after PTX-pretreatment [23] of the same molecule?
Answer: 79%

Question: And the decrease of labelling after PTX-pretreatment [24]?
Answer: 42%

Question: Which “effect on specific [3H]DAMGO binding (in words)” value [13] does the source give for `Nc1nc2c(ncn2[C@@H]2O[C@H](COP(=O)(O)OP(=O)(O)NP(=O)(O)O)[C@@H](O)[C@H]2O)c(=O)[nH]1` [Gp(NH)pp] here?
Answer: decrease the specific binding

Question: For `CC1(C)SSC(C)(C)[C@@H](NC(=O)[C@@H](N)Cc2ccc(O)cc2)C(=O)NCC(=O)N[C@@H](Cc2ccccc2)C(=O)N[C@H]1C(=O)O` [DPDPE, [D-Pen^2.5]-enkephalin], which “induction of potassium conductance (in words)” value [25] is on record?
Answer: no potassium conductance was induced

Question: With AGCKNFFWKTFTSC (peptide, UniProt P61278 103-116, looked up, mature) [Somatostatin-1-14] as the molecule, how does the IC50 [7] read?
Answer: 730000 nM

Question: Which Ki [26] does the source give for YGGFMTSEKSQTPLVTLFKNAIIKNAYKKGE (peptide, UniProt P01189 237-267, looked up, mature) [β-endorphin] here?
Answer: 1.7 nM
